T1: recombinant human TL1A (human, UniProt O95150 71-251)
T1 construct: Homotrimeric cytokine; biotinylated with Sulfo-NHS-biotin where captured for SPR, coated unlabelled in ELISA, soluble in bioassays; also called TNFSF15
T1 chain: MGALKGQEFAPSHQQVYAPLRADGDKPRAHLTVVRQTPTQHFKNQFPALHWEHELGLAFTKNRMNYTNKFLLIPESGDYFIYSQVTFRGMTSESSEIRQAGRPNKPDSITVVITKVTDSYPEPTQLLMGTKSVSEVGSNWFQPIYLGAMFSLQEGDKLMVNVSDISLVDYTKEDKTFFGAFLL

T2: recombinant human TL1A (human, UniProt O95150 71-251)
T2 construct: homotrimer; biotinylated for SPR capture; the ELISA paragraphs say only 'recombinant TL1A'; also called TNFSF15
T2 chain: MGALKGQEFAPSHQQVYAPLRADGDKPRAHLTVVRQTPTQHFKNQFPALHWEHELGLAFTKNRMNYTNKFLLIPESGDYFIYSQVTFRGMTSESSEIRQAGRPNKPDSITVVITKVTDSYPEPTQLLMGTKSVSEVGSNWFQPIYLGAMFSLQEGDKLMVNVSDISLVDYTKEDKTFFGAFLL


Target: T1, recombinant human TL1A
Experiment: competition ELISA, coated TL1A, competitor bio-TL1A-0002
Experimental: (§1) For this competition ELISA assay procedure, 96-well high binding plates (Corning, product number 3590) were coated with 1 μg/mL recombinant TL1A in 100 μL/well in Phospate Buffered Saline (PBS) overnight at 4° C. Plates were then blocked in PBS+0.02% casein solution and washed with PBS+0.05% Tween-20 following standard ELISA protocol. […] Plates were washed with PBS+0.05% Tween-20 following standard ELISA protocol, and Streptavidin-HRP (Southern Biotech, product number 7100-05) diluted to 1:10,000 in assay buffer was added to plates and incubated for 25-30 minutes at room temperature. Next, the plates were washed with PBS+0.05% Tween-20 following standard ELISA protocol, and then TMB substrate (BioFX Laboratories, catalog number TMBW-0100-01) was added to plates. Reactions were stopped after approximately 5 minutes by adding 0.18 M ortho-phosphoric acid to each well and absorbance was read at 450 nm.

Row | Bioactivity relative to TL1A-0002 | IC50 | Binder
1 | 2.8 fold | 14.2 nM | TL1A-0308 (antibody, human IgG1, kappa, V domains shown, human IgG1 effector-function-minimized/kappa) VH: QVQLVQSGAEVKKPGASVKVSCKASGYDFTYYGIGWVRQAPGQGLEWMGWISTYNTNTHYAPSLQGRVTMTTDTSTSTAYMELRSLRSDDTAVYYCARESYYGSGAFRGGMDVWGQGTTVTVSS VL: DIQMTQSPSSLSASVGDRVTITCRASQSVSSYLAWYQQKPGKAPKLLIYDASNRATGVPSRFSGSGSGTDFTLTISSLQPEDFATYYCQQRSNWPWTFGQGTKVEIKR
2 | 1.8 fold | 9 nM | TL1A-0291 (antibody, human IgG1, kappa, V domains shown, human IgG1 effector-function-minimized/kappa) VH: QVQLVQSGAEVKKPGASVKVSCKASGYDFTYYGVSWVRQAPGQGLEWMGWISTYNTGTHYAQKLQGRVTMTTDTSTSTAYMELRSLRSDDTAVYYCARESYYGSGAHRGGMDVWGQGTTVTVSS VL: DIQMTQSPSSLSASVGDRVTITCRASQSVSSYLAWYQQKPGKAPKLLIYDASNRATGVPSRFSGSGSGTDFTLTISSLQPEDFATYYCQQRSNWPWTFGQGTKVEIKR

Target: T2, recombinant human TL1A
Experiment: competition ELISA vs bio-TL1A-0002
Experimental: as §1

Row | Binder | Bioactivity relative to TL1A-0002 | IC50
3 | TL1A-0045 (antibody, human IgG1, kappa, V domains shown, IgG1/kappa; VH graft on IGHV1-46*01) VH: QVQLVQSGAEVKKPGASVKVSCKASGYDFTYYGISWVRQAPGQGLEWMGWISTYNGNTHYARMLQGRVTMTRDTSTSTVYMELSSLRSEDTAVYYCARENYYGSGAYRGGMDVWGQGTTVTVSS VL: EIVLTQSPATLSLSPGERATLSCRASQSVSSYLAWYQQKPGQAPRLLIYDASNRATGIPARFSGSGSGTDFTLTISSLEPEDFAVYYCQQRSNWPWTFGQGTKVEIKR | 1.2 fold | 5.5 nM
4 | TL1A-0043 (antibody, human IgG1, kappa, V domains shown, IgG1/kappa; VL graft on IGKV3D-7*01) VH: QVQLVQSGAEVKKPGASVKVSCKASGYDFTYYGISWVRQAPGQGLEWMGWISTYNGNTHYARMLQGRVTMTTDTSTRTAYMELRSLRSDDTAVYYCARENYYGSGAYRGGMDVWGQGTTVTVSS VL: EIVMTQSPATLSLSPGERATLSCRASQSVSSYLAWYQQKPGQAPRLLIYDASNRATGIPARFSGSGSGTDFTLTISSLQPEDFAVYYCQQRSNWPWTFGQGTKVEIKR | 0.9 fold | 3.9 nM
5 | TL1A-0049 (antibody, human IgG1, kappa, V domains shown, IgG1/kappa; IGHV1-46*01 / IGKV1-39*01 grafts) VH: QVQLVQSGAEVKKPGASVKVSCKASGYDFTYYGISWVRQAPGQGLEWMGWISTYNGNTHYARMLQGRVTMTRDTSTSTVYMELSSLRSEDTAVYYCARENYYGSGAYRGGMDVWGQGTTVTVSS VL: DIQMTQSPSSLSASVGDRVTITCRASQSVSSYLAWYQQKPGKAPKLLIYDASNRATGVPSRFSGSGSGTDFTLTISSLQPEDFATYYCQQRSNWPWTFGQGTKVEIKR | 1.1 fold | 4.9 nM
6 | TL1A-0042 (antibody, human IgG1, kappa, V domains shown, TL1A-0002 heavy chain with light chain CDRs grafted on IGKV1-39*01 (DPK9)) VH: QVQLVQSGAEVKKPGASVKVSCKASGYDFTYYGISWVRQAPGQGLEWMGWISTYNGNTHYARMLQGRVTMTTDTSTRTAYMELRSLRSDDTAVYYCARENYYGSGAYRGGMDVWGQGTTVTVSS VL: DIQMTQSPSSLSASVGDRVTITCRASQSVSSYLAWYQQKPGKAPKLLIYDASNRATGVPSRFSGSGSGTDFTLTISSLQPEDFATYYCQQRSNWPWTFGQGTKVEIKR | 0.9 fold | 4.2 nM
7 | TL1A-0048 (antibody, human IgG1, kappa, V domains shown, IgG1/kappa; VH graft on IGHV1-2*02) VH: QVQLVQSGAEVKKPGASVKVSCKASGYDFTYYGISWVRQAPGQGLEWMGWISTYNGNTHYARMLQGRVTMTRDTSISTAYMELSRLRSDDTAVYYCARENYYGSGAYRGGMDVWGQGTTVTVSS VL: EIVLTQSPATLSLSPGERATLSCRASQSVSSYLAWYQQKPGQAPRLLIYDASNRATGIPARFSGSGSGTDFTLTISSLEPEDFAVYYCQQRSNWPWTFGQGTKVEIKR | 0.9 fold | 4.1 nM
8 | TL1A-0047 (antibody, human IgG1, kappa, V domains shown, IgG1/kappa; VH graft on IGHV3-7*01) VH: EVQLVESGGGLVQPGGSLRLSCAASGYDFTYYGISWVRQAPGKGLEWVAWISTYNGNTHYARMLQGRFTISRDNAKNSLYLQMNSLRAEDTAVYYCARENYYGSGAYRGGMDVWGQGTTVTVSS VL: EIVLTQSPATLSLSPGERATLSCRASQSVSSYLAWYQQKPGQAPRLLIYDASNRATGIPARFSGSGSGTDFTLTISSLEPEDFAVYYCQQRSNWPWTFGQGTKVEIKR | 1.2 fold | 5.3 nM

The next lines start with the values.

Row | Bioactivity relative to TL1A-0002 | IC50 | Binder
9 | 1 fold | 4.5 nM | TL1A-0051 (antibody, human IgG1, kappa, V domains shown, IgG1/kappa; IGHV3-7*01 / IGKV1-39*01 grafts) VH: EVQLVESGGGLVQPGGSLRLSCAASGYDFTYYGISWVRQAPGKGLEWVAWISTYNGNTHYARMLQGRFTISRDNAKNSLYLQMNSLRAEDTAVYYCARENYYGSGAYRGGMDVWGQGTTVTVSS VL: DIQMTQSPSSLSASVGDRVTITCRASQSVSSYLAWYQQKPGKAPKLLIYDASNRATGVPSRFSGSGSGTDFTLTISSLQPEDFATYYCQQRSNWPWTFGQGTKVEIKR
10 | 1 fold | 4.5 nM | TL1A-0053 (antibody, human IgG1, kappa, V domains shown, IgG1/kappa; IGHV1-46*01 / IGKV3D-7*01 grafts) VH: QVQLVQSGAEVKKPGASVKVSCKASGYDFTYYGISWVRQAPGQGLEWMGWISTYNGNTHYARMLQGRVTMTRDTSTSTVYMELSSLRSEDTAVYYCARENYYGSGAYRGGMDVWGQGTTVTVSS VL: EIVMTQSPATLSLSPGERATLSCRASQSVSSYLAWYQQKPGQAPRLLIYDASNRATGIPARFSGSGSGTDFTLTISSLQPEDFAVYYCQQRSNWPWTFGQGTKVEIKR
11 | 0.8 fold | 3.5 nM | TL1A-0052 (antibody, human IgG1, kappa, V domains shown, IgG1/kappa; IGHV1-2*02 / IGKV1-39*01 grafts) VH: QVQLVQSGAEVKKPGASVKVSCKASGYDFTYYGISWVRQAPGQGLEWMGWISTYNGNTHYARMLQGRVTMTRDTSISTAYMELSRLRSDDTAVYYCARENYYGSGAYRGGMDVWGQGTTVTVSS VL: DIQMTQSPSSLSASVGDRVTITCRASQSVSSYLAWYQQKPGKAPKLLIYDASNRATGVPSRFSGSGSGTDFTLTISSLQPEDFATYYCQQRSNWPWTFGQGTKVEIKR
12 | 0.8 fold | 3.8 nM | TL1A-0056 (antibody, human IgG1, kappa, V domains shown, IgG1/kappa; IGHV1-2*02 / IGKV3D-7*01 grafts) VH: QVQLVQSGAEVKKPGASVKVSCKASGYDFTYYGISWVRQAPGQGLEWMGWISTYNGNTHYARMLQGRVTMTRDTSISTAYMELSRLRSDDTAVYYCARENYYGSGAYRGGMDVWGQGTTVTVSS VL: EIVMTQSPATLSLSPGERATLSCRASQSVSSYLAWYQQKPGQAPRLLIYDASNRATGIPARFSGSGSGTDFTLTISSLQPEDFAVYYCQQRSNWPWTFGQGTKVEIKR
13 | 1 fold | 4.4 nM | TL1A-0055 (antibody, human IgG1, kappa, V domains shown, IgG1/kappa; IGHV3-7*01 / IGKV3D-7*01 grafts) VH: EVQLVESGGGLVQPGGSLRLSCAASGYDFTYYGISWVRQAPGKGLEWVAWISTYNGNTHYARMLQGRFTISRDNAKNSLYLQMNSLRAEDTAVYYCARENYYGSGAYRGGMDVWGQGTTVTVSS VL: EIVMTQSPATLSLSPGERATLSCRASQSVSSYLAWYQQKPGQAPRLLIYDASNRATGIPARFSGSGSGTDFTLTISSLQPEDFAVYYCQQRSNWPWTFGQGTKVEIKR

Target: T1, recombinant human TL1A
Experiment: cell-based or functional assay

Row | TF-1 NF-κB reporter cell bioassay IC50 | TF-1 NF-κB reporter cell bioassay, Bioactivity relative to TL1A-0002 | Whole blood IFNγ assay IC50 | Whole blood IFNγ assay, Bioactivity relative to TL1A-0002 | Binder
14 | 43 nM | 1.2 fold | 0.81 nM | 1 fold | TL1A-0308 (antibody, human IgG1, kappa, V domains shown, human IgG1 effector-function-minimized/kappa) VH: QVQLVQSGAEVKKPGASVKVSCKASGYDFTYYGIGWVRQAPGQGLEWMGWISTYNTNTHYAPSLQGRVTMTTDTSTSTAYMELRSLRSDDTAVYYCARESYYGSGAFRGGMDVWGQGTTVTVSS VL: DIQMTQSPSSLSASVGDRVTITCRASQSVSSYLAWYQQKPGKAPKLLIYDASNRATGVPSRFSGSGSGTDFTLTISSLQPEDFATYYCQQRSNWPWTFGQGTKVEIKR
15 | – | – | 0.929 nM | 1.1 fold | TL1A-0291 (antibody, human IgG1, kappa, V domains shown, human IgG1 effector-function-minimized/kappa) VH: QVQLVQSGAEVKKPGASVKVSCKASGYDFTYYGVSWVRQAPGQGLEWMGWISTYNTGTHYAQKLQGRVTMTTDTSTSTAYMELRSLRSDDTAVYYCARESYYGSGAHRGGMDVWGQGTTVTVSS VL: DIQMTQSPSSLSASVGDRVTITCRASQSVSSYLAWYQQKPGKAPKLLIYDASNRATGVPSRFSGSGSGTDFTLTISSLQPEDFATYYCQQRSNWPWTFGQGTKVEIKR

— patent US20240059799A1 (Pfizer, published 2024)
